The values that follow come from article PMC3976300.

Assay in all cases: intrinsic fluorescence quenching
In series [1] the test system is All4779 (Anabaena sp. PCC7120). The conditions noted are these: Fluorescence: 20 mM Tris-HCl pH 8, 1 mM EDTA, 20 or 100 mM NaCl, room temperature, EMSA: 20 mM Tris-HCl pH 8, 1 mM MgCl2, 100 mM KCl, 8 mM DTT, 4% sucrose …. For orientation: In EMSA bound probe runs differently from free probe, usually more slowly.
Series [2] deals with Alr0088 (Anabaena sp. PCC7120). The conditions noted are these: Fluorescence: 20 mM Tris-HCl pH 8, 1 mM EDTA, 20 or 100 mM NaCl, room temperature, EMSA: 20 mM Tris-HCl pH 8, 1 mM MgCl2, 100 mM KCl, 8 mM DTT, 4% sucrose ….
In series [3] the test system is EcoSSB (Escherichia coli). The conditions noted are these: 20 mM NaCl; Fluorescence: 20 mM Tris-HCl pH 8, 1 mM EDTA, 20 or 100 mM NaCl, room temperature; EMSA: 20 mM Tris-HCl pH 8, 1 mM MgCl2, 100 mM KCl, 8 mM DTT, 4% sucrose ….
The mark [4] stands for this setting: 20 mM NaCl, reciprocal of poly(dT) concentration at 50% fluorescence.

In the case of M13 ssDNA, the figures for the binding signal in series [1] (high NaCl) and in series [2] (high NaCl) were 18 % quenching and 40 % quenching, respectively.
On to poly(dT), for which the Ka amounted to 5.13e+07 M⁻¹ in series [1] (setting [4]), 2.56e+06 M⁻¹ in series [2] (setting [4]) and 6.76e+07 M⁻¹ in series [3].
